Experiment [1] deals with T1, KIR2DL5 wild type (KIR2DL5A*001) expressed on cells (human, UniProt Q8N109 22-375).
T1 construct: UniProtKB Q8N109 and NP_065396.1 are printed for this entry; In the SHP-1/SHP-2 co-immunoprecipitation the cells were treated with pervanadate and the receptor was tyrosine-phosphorylated; also called KIR2DL5/3T3; WT KIR2DL5
Nature of the experiment: flow cytometry, blocking: KIR2DL5/3T3 cells preincubated with serial F8B30, then 20 µg/mL PVR-Ig. The procedure: Specifically, a cell-based binding assay was performed by incubating PVR-Ig fusion protein with KIR2DL5- or KIR2DL4-expressing 3T3 cells. Conversely, KIR2DL5 was selectively bound by PVR, but not by CD112 (also known as nectin-2), another ligand for TIGIT and DNAM-1 in the nectin/nectin-like family (FIG. 10A). Furthermore, anti-KIR2DL5 mAb F8B30 blocked KIR2DL5-PVR interaction (EC₅₀=0.095 μM) (FIG. 10B). The specificity of KIR2DL5 binding to PVR was also evidenced by an intercellular interaction assay, in which 3T3 cells expressing PVR interacted with 3T3 cells expressing KIR2DL5, but not with cells expressing KIR3DL3 (FIG. 18B), a newly identified inhibitory receptor of HHLA2 (Zang, 2022; Wei 2021; Bhatt 2021).
Fusion protein cell binding assays. PVR-Ig, CD112-Ig, or hIgG (R&D Systems) was incubated with corresponding 3T3 cells on ice for 45 minutes, followed by incubation with APC- or PE-conjugated anti-human IgG Fc antibody (1:100; clone HP6017, BioLegend) on ice for 30 minutes. Cells were then acquired on an LSR II flow cytometer (BD Biosciences). In the anti-KIR2DL5 mAb blocking assay, KIR2DL5/3T3 cells were preincubated with a serial concentration of anti-KIR2DL5 mAb F8B30 or mIgG1 on ice for 30 minutes. After washing, the cells were then incubated with 20 μg/mL PVR-Ig or hIgG on ice for 45 minutes, followed by incubation with APC anti-human IgG Fc antibody on ice for 30 minutes. […]
In general terms: In flow cytometry, cells or beads pass a laser one at a time.

Experiment [2] concerns the target KIR2DL5 D0 variant T46S expressed on 3T3 cells (human, UniProt Q8N109 22-375). The experiment can be described thus: flow cytometry on 3T3 cells expressing the KIR2DL5 D0 variant.
Experiment [3] addresses KIR2DL5 D0 variant P112S expressed on 3T3 cells (human, UniProt Q8N109 22-375). The experiment is described as above.
In experiment [4] the target is KIR2DL5 D0 variant G97S expressed on 3T3 cells (human, UniProt Q8N109 22-375). The description is as above.
Experiment [5] deals with KIR2DL5 D0 variant R52H expressed on 3T3 cells (human, UniProt Q8N109 22-375). The experiment is described as above.
For experiment [6], the target named is T2, KIR2DL5A*005 allele expressed on 3T3 cells (human).
T2 construct: also called 2D5A*005
Nature of the experiment: flow cytometry, transduced 3T3 cells, mAb 5 µg/mL. The method, then: FIG. 8A-8D: Generation and characterization of anti-KIR2DL5-specific mAbs. (A) The specificity of anti-KIR2DL5 mAb clone F8B30. 3T3 cells transduced with indicated KIR family members were stained with 5 μg/mL of F8B30 (open) or mIgG1 (shaded). (B) 3T3 cells transduced with DO-deleted (KIR2DL5 dD0) or D2-deleted KIR2DL5 (KIR2DL5 dD2) were stained with 5 μg/mL of clone F8B30 or commercial clone UP-R1. (C) Anti-KIR2DL5 mAb clone F8B30 recognized different KIR2DL5A and 5B alleles. 3T3 cells transduced with indicated alleles were stained with 5 μg/mL of F8B30 or UP-R1 (open) or mIgG1 (shaded). (D) Anti-KIR2DL5 mAb clone F8B30 recognized different KIR2DL5 DO domain variants. 3T3 cells transduced with indicated DO variants were stained with 0.025 μg/mL of F8B30 or UP-R1 (open) or mIgG1 (shaded). In A-D, data are representative of 2 independent experiments.

As a reminder, the EC50 is the concentration giving half of the maximal effect. A high value points to a need for much substance.

T2 sequence (chain, as listed by the source): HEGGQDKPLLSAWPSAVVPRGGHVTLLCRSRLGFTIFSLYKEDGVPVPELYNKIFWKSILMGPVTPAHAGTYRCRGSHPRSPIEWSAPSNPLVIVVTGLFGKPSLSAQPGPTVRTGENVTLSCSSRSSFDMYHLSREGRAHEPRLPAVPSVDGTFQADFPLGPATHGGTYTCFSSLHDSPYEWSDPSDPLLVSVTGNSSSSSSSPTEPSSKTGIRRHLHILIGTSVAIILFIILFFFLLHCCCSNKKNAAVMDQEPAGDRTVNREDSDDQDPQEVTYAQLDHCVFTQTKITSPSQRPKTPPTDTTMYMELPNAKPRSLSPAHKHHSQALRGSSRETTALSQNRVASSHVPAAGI
Sequence of KIR2DL5 D0 variant G97S expressed on 3T3 cells (Q8N109 22-375 G97S): as the sequence (chain, as listed by the source) above, with G76S, D152N, S174G counted along it
Sequence of KIR2DL5 D0 variant T46S expressed on 3T3 cells (Q8N109 22-375 T46S): as the sequence (chain, as listed by the source) above, with T25S, D152N, S174G counted along it
Sequence of KIR2DL5 D0 variant P112S expressed on 3T3 cells (Q8N109 22-375 P112S): as the sequence (chain, as listed by the source) above, with P91S, D152N, S174G counted along it
Sequence of KIR2DL5 D0 variant R52H expressed on 3T3 cells (Q8N109 22-375 R52H): as the sequence (chain, as listed by the source) above, with R31H, D152N, S174G counted along it

B1: anti-KIR2DL5 mAb clone F8B30 (antibody, V domains shown)
VH: QIQLVQSGPELKKPGETVKISCKASGYTFTDYSMHWVKQAPGKGLKWMGWINTETGGPTYADDFKGRFAFSLETSATTAYLQINNLKNEDTATYFCSRDVDLYFDYWGQGTTLTVS
VL: DIQMTQSPASLSASVGETVTITCRTSENIYSYLAWYQQKQGKSPQLLVYNAKTLVEGVPSRFSGSGSGTQFSVKINSLQPEDFGNYYCQHHYGIPFTFGGGTKLEIK
notes: also called F8B30 (IgG1, κ)
Regarding B1, the EC50 was determined as 95 nM in experiment [1]; 8.6 nM in experiment [2]; 9.4 nM in experiment [3]; 43.6 nM in experiment [4]; 9.2 nM in experiment [5]. The binding result in experiment [6] was “binds”.

Source of the values: US20250019435A1 (ALBERT EINSTEIN COLLEGE OF MEDICINE, published 2025).
